Experimental findings from paper doi:10.1101/038398 are described below.

Test [1] addresses human iNOS oxygenase domain, recombinant (human). The test is described as follows: ITC. (ITC needs no label: the signal is the heat of the interaction.)
Test [2] shares this target. The test is described as follows: SPR. For orientation: Surface plasmon resonance follows binding to a sensor surface in real time, without labels.

Chain of human iNOS oxygenase domain, recombinant (human) (P35228 whole entry, the tested form may be a part): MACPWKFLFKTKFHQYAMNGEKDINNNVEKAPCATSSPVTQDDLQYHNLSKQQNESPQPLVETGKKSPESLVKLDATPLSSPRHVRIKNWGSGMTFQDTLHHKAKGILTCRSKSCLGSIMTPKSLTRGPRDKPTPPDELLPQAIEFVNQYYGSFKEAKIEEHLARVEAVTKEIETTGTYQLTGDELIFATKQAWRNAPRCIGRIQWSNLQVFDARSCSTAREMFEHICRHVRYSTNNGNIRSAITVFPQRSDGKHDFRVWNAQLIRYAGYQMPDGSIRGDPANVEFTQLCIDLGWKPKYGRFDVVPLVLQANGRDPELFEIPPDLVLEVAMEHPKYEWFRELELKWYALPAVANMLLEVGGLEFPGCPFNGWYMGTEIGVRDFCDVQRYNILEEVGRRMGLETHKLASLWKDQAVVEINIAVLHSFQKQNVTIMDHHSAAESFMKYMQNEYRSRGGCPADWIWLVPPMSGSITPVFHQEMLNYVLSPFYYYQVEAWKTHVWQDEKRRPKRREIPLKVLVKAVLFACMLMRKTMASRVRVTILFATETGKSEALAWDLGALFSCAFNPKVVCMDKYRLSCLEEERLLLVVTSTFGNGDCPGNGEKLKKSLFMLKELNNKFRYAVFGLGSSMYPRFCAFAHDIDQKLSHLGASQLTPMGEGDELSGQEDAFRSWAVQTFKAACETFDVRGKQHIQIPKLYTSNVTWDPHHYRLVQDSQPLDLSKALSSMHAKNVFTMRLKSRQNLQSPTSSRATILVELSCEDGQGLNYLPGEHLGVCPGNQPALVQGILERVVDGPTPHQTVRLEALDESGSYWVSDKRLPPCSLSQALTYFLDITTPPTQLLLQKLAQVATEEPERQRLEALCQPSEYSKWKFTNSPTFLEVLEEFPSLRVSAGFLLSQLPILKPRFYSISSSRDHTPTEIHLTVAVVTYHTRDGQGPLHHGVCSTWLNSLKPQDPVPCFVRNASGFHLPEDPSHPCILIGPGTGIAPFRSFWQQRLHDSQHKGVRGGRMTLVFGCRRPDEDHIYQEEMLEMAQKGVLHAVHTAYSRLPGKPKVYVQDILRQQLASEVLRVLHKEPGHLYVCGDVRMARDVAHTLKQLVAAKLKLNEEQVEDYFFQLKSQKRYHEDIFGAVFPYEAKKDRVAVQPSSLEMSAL

B1: Nitric oxide synthase interacting protein (NOSIP), full length, recombinant (natural protein)
chain: MTRHGKNCTAGAVYTYHEKKKDTAASGYGTQNIRLSRDAVKDFDCCCLSLQPCHDPVVTPDGYLYEREAILEYILHQKKEIARQMKAYEKQRGTRREEQKELQRAASQDHVRGFLEKESAIVSRPLNPFTAKALSGTSPDDVQPGPSVGPPSKDKDKVLPSFWIPSLTPEAKATKLEKPSRTVTCPMSGKPLRMSDLTPVHFTPLDSSVDRVGLITRSERYVCAVTRDSLSNATPCAVLRPSGAVVTLECVEKLIRKDMVDPVTGDKLTDRDIIVLQRGGTGFAGSGVKLQAEKSRPVMQA
One may read the stoichiometry N as a count of units in the complex or per binding partner. In general, Kd refers to the concentration at which binding is half-saturated. On to B1, for which, in test [1], the dH was -38.2 kcal/mol and the stoichiometry N amounted to 0.505. Further, the Kd in test [2] was determined as 7.11 nM.
